{
  "source": "patent US20190328766",
  "about": "“COMPOSITIONS AND METHODS FOR SUPPRESSING MSUT2” (United States Government As Represented By The Department …, published 2019)",
  "key": {"[1]": {"biological_target": "T1, GST-MSUT2 (UniProt Q6PJT7 Q6PJT7:595-719)", "T1 sequence": "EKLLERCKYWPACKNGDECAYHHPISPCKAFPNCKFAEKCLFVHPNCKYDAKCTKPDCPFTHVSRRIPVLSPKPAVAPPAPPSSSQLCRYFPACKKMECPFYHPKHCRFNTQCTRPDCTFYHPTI", "experiment": "AlphaScreen; 25 mM HEPES, 100 mM NaCl, 0.04% casein, 0.2% Triton X-100, pH 7.4, room temp; inhibited by ebselen", "details": "tags: GST fusion; label: 5' TEG-Biotin (IDT)", "procedure": "The steps and set up for performing the ALPHA assay for MSUT2 binding to polyA are as follows: [0229] 1. Dilutions are in assay buffer (1×PAMA final concentration). [0230] 2. Scale is for 96 well assay in PE […] ½ area plate (total volume/well is 50 μL). [0231] 3. Assays set up in low light conditions [0232] 4. Add 20 μL of diluted donor bead (10 ug/mL) to well bringing well volume to 20 μL [0233] 5. Add 10 μL diluted biotin RNA (15 nM)) bringing well volume to 30 μL [0234] 6. Add 10 μL diluted GST-MSUT2 Protein (125 nM)) bringing well volume to 40 μL [0235] 7. Incubate at room temp for 30 minutes in the dark [0236] 8. […] 9. Incubate at room temp for 60 minutes in the dark [0238] 10. Read Plate using standard AlphaAssay settings on Perkin Elmer EnSpire® Alpha microplate reader"}, "[2]": {"biological_target": "T2, PABPN1 (Homo sapiens, UniProt Q86U42 Q86U42:1-306)", "T2 sequence": "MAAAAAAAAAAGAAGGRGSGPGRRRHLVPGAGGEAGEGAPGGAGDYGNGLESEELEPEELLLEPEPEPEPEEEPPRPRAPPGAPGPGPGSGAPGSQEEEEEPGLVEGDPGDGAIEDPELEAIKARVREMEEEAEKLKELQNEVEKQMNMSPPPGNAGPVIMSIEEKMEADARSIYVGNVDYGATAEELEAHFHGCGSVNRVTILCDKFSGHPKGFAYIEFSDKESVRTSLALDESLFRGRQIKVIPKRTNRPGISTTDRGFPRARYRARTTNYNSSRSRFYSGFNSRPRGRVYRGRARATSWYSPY", "experiment": "SPR; Biacore T200, biotin capture, from kinetics at 0.6-1 uM protein", "details": "tags: GST fusion (pGEX6P-1), E. coli BL21(DE3), benzonase treated; label: 5' BiotinTEG", "procedure": "(§1) SPR experiments were conducted on a Biacore T200 using the Biotin Capture Kit Series S following the manufacturer's instructions (GE). Biotin capture reagent was applied to the sensor chip at a flow rate of 2 μl/minute for 300 seconds. 1 nM biotinylated RNA (BiotinTEG-[…]; SEQ ID NO: 25) was captured at a flow rate of 10 μl/minute for 180 seconds. Samples were flowed across the sensor chip at 50 μl/minute for 120 seconds and the chip was regenerated for 120 seconds at a flow rate of 10 μl/minute."}, "[3]": {"biological_target": "T3, MSUT2 (ZC3H14) CCCH zinc finger domain (Homo sapiens, UniProt Q6PJT7 Q6PJT7:595-719)", "T3 chain": "T1 sequence", "experiment": "SPR; Biacore T200, biotin capture, from kinetics at 0.6-1 uM protein", "details": "tags: GST fusion (pGEX6P-1), E. coli BL21(DE3), benzonase treated; label: 5' BiotinTEG", "procedure": "as §1"}, "[4]": {"biological_target": "T1, GST-MSUT2", "experiment": "FP; dose-dependent polarization increase", "details": "tags: GST fusion; label: fluorescein (FAM)"}},
  "data": [
    {"binder": "AAAAAAAAAAAAAAAAAAAA (ssRNA)", "note": "[biotin-poly(A)20]", "values": [
      {"measurement": "binding result", "setting": "[1]", "value": "binds"}
    ]},
    {"binder": "AAAAAAAAAAAAAAA (ssRNA)", "note": "[biotin-poly(A)15]", "values": [
      {"measurement": "Kd", "setting": "[2]", "value": 237, "unit": "nM"},
      {"measurement": "Kd", "setting": "[3]", "value": 60, "unit": "nM"}
    ]},
    {"binder": "AAAAAAAAAAAAAAA (ssRNA)", "note": "[FAM-PolyA15]", "values": [
      {"measurement": "binding result", "setting": "[4]", "value": "binds"}
    ]}
  ]
}
